Article PMC5071168

Tests used:
[1] = molecular target: LvTIM-Cys47Ala (Litopenaeus vannamei)
[2] = molecular target: triosephosphate isomerase from Litopenaeus vannamei (LvTIM), wild type (Litopenaeus vannamei); experiment: SEC

| Substance | catalytic efficiency (kcat/Km) of LvTIM-Cys47Ala, similar to wild-type LvTIM [1] [M⁻¹ s⁻¹] | stoichiometry N [2] |
| --- | --- | --- |
| LvTIM-Cys47Ala (enzyme) | 2.33e+06 |  |
| triosephosphate isomerase from Litopenaeus vannamei (LvTIM), wild type (enzyme) |  | 2 |
